Stoichiometry N data for 1 substance are collected here from paper PMC11860714.

For this test, the target named is 329 SOSIP.v8.2 Env trimer (HIV-1 clade C). Briefly: native gel or EMSA; BN-PAGE, NuPAGE 4–12% Bis-Tris gels; 2 µg SOSIP trimers or equimolar SOSIP–ferritin (2.5 µg) and SOSIP-I53-50 (3.2 µg) NPs.

Regarding “329 SOSIP.v8.2 Env trimer (domain or fragment)”, the stoichiometry N is 3.
